In US20230159643A1 (H LUNDBECK A S, published 2023):

Assays:
[1] = molecular target: T1, human wild type Sortilin on S18-HEK cells (human, UniProt Q99523 78-831); experiment: cell-based or functional assay
T1 sequence: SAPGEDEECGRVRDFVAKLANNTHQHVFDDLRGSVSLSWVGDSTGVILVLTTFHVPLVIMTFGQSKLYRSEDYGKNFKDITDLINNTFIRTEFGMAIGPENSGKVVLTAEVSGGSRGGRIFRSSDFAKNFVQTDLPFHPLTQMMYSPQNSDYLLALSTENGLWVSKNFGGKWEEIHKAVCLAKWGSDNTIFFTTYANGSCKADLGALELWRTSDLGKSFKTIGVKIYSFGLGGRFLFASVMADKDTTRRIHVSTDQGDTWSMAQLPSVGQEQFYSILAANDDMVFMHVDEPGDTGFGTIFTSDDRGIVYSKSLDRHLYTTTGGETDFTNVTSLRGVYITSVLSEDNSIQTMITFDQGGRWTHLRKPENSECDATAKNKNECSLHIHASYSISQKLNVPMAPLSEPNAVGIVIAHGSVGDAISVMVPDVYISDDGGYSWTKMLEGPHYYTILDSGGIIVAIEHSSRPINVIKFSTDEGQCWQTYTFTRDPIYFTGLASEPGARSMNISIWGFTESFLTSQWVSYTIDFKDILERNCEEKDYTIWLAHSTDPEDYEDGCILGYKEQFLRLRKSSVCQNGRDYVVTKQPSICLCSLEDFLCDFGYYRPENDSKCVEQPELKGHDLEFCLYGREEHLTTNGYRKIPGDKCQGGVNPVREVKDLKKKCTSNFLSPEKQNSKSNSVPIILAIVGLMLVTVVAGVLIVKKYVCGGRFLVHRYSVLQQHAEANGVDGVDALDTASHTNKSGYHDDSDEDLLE

Sortilin hSORTECDBAP = molecular target: T2, Sortilin hSORTECDBAP (human, UniProt Q99523 78-755, biotinylated on the BAP tag by co-expression of biotin ligase); experiment: BLI Octet 384RED (Example 8), Sortilin construct in solution
T2 construct: Soluble extracellular region (ECD, aa 1-755) with BAP tag
T2 sequence: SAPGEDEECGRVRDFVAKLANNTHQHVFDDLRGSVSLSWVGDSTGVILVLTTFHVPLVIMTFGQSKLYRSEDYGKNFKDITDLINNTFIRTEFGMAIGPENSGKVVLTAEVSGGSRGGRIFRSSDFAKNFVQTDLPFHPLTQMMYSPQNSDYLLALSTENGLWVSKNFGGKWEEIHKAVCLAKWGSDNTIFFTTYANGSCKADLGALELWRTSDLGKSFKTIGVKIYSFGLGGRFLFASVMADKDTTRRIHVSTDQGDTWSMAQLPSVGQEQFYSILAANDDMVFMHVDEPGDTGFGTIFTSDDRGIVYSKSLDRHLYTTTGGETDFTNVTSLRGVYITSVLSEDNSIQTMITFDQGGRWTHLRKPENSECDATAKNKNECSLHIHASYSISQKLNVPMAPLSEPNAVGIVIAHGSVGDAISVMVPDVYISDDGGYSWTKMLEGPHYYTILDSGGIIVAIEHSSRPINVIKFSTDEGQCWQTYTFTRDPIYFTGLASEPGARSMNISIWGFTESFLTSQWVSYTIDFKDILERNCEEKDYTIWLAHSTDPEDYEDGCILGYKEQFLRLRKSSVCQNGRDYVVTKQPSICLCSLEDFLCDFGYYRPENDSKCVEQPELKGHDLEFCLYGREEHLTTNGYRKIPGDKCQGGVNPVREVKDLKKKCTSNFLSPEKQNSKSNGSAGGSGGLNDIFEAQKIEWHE
Description: (§1) Binding kinetics of anti-Sortilin HuMab antibodies to Sortilin were determined using Octet 384RED (Fortebio, Menlo Park, USA). HuMab solutions of 2 μg/ml were made by dilution in sample diluent (ForteBio, art. No. 18-5028). Prot A sensors (ForteBio, art. no. 18-0004) were prewetted with kinetics buffer (1:10 sample diluent in PBS) for at least 600 seconds. Subsequently sensors were immobilized with HuMab solution for 600 seconds. A baseline response was obtained by dipping in kinetics buffer for 120 seconds. Association of SORTECD constructs was performed during a 1000 seconds incubation. This was followed by dissociation in kinetics buffer for 100 seconds. After dissociation, sensors were regenerated (10 mM Glycine pH 1.0) and neutralized (kinetics buffer) 3 times for 5 seconds. […] A molecular weight of 76.8 kDA was used for SORTECDHis. Data was fitted with ForteBio Analysis 6.4 software, using a global full fit.

[2] = molecular target: T3, Sortilin SORTECDBAP_hB06-10 (human/tetraodon chimera); experiment: as above
T3 construct: Shuffle construct
T3 chain: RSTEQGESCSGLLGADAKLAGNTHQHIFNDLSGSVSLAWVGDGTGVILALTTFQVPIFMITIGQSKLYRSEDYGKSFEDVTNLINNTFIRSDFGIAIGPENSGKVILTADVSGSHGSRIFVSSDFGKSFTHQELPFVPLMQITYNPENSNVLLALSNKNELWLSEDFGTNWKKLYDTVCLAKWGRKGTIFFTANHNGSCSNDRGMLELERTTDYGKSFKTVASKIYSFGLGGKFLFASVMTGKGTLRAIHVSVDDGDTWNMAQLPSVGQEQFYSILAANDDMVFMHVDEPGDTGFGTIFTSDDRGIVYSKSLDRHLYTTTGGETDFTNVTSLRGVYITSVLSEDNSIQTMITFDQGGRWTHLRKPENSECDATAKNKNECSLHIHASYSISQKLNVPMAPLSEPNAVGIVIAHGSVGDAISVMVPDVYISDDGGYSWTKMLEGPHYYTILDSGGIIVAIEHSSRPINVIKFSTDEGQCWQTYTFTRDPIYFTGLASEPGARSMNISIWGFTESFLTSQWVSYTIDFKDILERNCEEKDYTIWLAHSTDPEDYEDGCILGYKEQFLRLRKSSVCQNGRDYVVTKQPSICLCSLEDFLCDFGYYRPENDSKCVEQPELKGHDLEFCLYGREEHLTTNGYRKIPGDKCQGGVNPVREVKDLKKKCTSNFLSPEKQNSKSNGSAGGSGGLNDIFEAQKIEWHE
Description: as §1

B1: 1320 (antibody, V domains shown)
VH: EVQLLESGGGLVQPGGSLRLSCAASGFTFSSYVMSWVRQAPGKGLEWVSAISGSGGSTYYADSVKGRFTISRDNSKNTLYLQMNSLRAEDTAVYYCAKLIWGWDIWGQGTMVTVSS
VL: EIVLTQSPATLSLSPGERATLSCRASQSVSSYLAWYQQRPGQAPRLLIYDASNRATGIPARFSGSGSGTDFTLSISSLEPEDFAVYYCQQRTNWSITFGQGTRLEIK
notes: also called IgG1-6003-1320; Antibody 1320
Question: With B1 as the binder, how does the “extracellular PGRN in medium of Sortilin over-expressing HEK cells (ELISA), % of untreated control” value (“extracellular PGRN … % of untreated control” below) [1] read?
Answer: 114%

B2: Antibody 1F2 (antibody, V domains shown)
VH: EVQLVESGGDLVKPGGSLKLSCAASGFTFSSYGMSWVRQTPDKRLEWVAIISSGGSYTHYPDSVKGRFTISRDNAKNTLYLQMSSLKSEDTAMYYCARLCGPLCSGYWGQGTSVTVSS
VL: QAVVTQESALTTSPGETVTLTCRSSTGAVTTSNYANWVQEKPDHLFTGLIGGTNNRAPGVPARFSGSLIGDKAALTITGAQTEDEAIYFCALWYSNHFWVFGGGTKLTVLG
notes: Mouse anti-human Sortilin monoclonal antibody from hybridoma (BALB/c), purified on protein G; Assigned to the D Region; also called 1F2F4; Ab 1F2
Question: B2 was tested. Which “extracellular PGRN … % of untreated control” value [1] did it give?
Answer: 282%

Question: What about the EC50 (Sortilin hSORTECDBAP) of the same binder?
Answer: 1.56 ng/mL

Question: What about the EC50 [2] of the same binder?
Answer: 9.6 ng/mL

B3: Antibody 5E1 (antibody, V domains shown)
VH: EVHLVESGGDLVNPGGSLKLSCEASGFIFSIYGMSWVRQTPDKRLEWVAMISSGGIYTQYPDSVKGRFTISRDNAKNTLYLQMSGLKSEDTGTYHCTRHDDSWFAYWGQGTLVTVSA
VL: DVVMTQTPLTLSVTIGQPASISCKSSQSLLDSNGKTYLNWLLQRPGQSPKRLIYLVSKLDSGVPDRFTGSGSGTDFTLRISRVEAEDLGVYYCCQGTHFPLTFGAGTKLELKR
notes: Mouse anti-human Sortilin monoclonal antibody from hybridoma (BALB/c), purified on protein G; Assigned to the D Region; also called 5E1F6; Ab 5E1
Question: How did the “extracellular PGRN … % of untreated control” value [1] turn out when B3 was run?
Answer: 177%

Question: And the EC50 (Sortilin hSORTECDBAP)?
Answer: 1.14 ng/mL

Question: And the EC50 [2]?
Answer: 0.72 ng/mL
